Laboratory results from patent US20140045211A1.

Molecular target: CCR1 on HEK293 cells / HEK293 membranes stably expressing CCR1 (UniProt P32246)
Assay: cell-based or functional assay

Sequence of CCR1 on HEK293 cells / HEK293 membranes stably expressing CCR1 (P32246 whole entry): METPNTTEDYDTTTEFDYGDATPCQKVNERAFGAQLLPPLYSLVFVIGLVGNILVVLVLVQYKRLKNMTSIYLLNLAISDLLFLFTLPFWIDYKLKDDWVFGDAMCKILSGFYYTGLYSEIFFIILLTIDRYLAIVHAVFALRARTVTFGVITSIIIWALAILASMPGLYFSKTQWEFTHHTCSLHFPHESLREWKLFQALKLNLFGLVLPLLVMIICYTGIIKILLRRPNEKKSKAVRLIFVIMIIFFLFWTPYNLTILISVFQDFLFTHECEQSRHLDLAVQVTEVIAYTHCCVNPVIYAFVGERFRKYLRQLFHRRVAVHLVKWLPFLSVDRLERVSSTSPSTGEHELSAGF

With “CCL14-fluorescein (CCL14 9-74 with added C-terminal cysteine labeled with fluorescein-5-maleimide) (from UniProt Q16627 28-93) (ligand)” the calcium flux (dose response curve) was 2 nM.
